The nanobody polyreactivity screen of Harvey et al. (2022)

assay: yeast display, Sf9 membrane polyspecificity reagent, FACS + sequencing; frameworks hold sequencing errors
Procedure, shortened: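 Galactose induction of a Saccharomyces cerevisiae BJ5465 synthetic nanobody display library ran 36–48 hours. The cells were then stained for 1 hour at 4 °C with 10% biotinylated, detergent-solubilized Sf9 membrane reagent, pulled down on streptavidin microbeads and FACS-sorted into low and high (top ~1%) gates on expression and reagent-binding fluorescence. Labels for polyreactivity follow the gate of origin.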

Row | Sequence | polyreactivity (PSR sort gate)
1 | QVQLVESGGGLVQAGGSLRLSCAASGSTLANYAMGWYRQAPGKERELVAAINSGGSTYYADSVKGRFTISRDNAKNTVYLQMNSLKPEDTAVYYCAAETPNYYGRWEPVWHYYWGQGTQVTVSS | high polyreactivity
2 | QVQLVESGGGLVQAGGSLRLSCAASGSTLARYAMGWYRQAPGKERELVAAISWIGGSTYYADSVKGRFTISRDNAKNTVYLQMNSLKPEDTAVYFCAKDTYPWYIRNRYDYWGQGSQVTVSS | high polyreactivity
3 | QVQLVESGGGLVQAGGSLRLSCAASGSTLAVYAMGWYRQAPGKEREFFAAISWSGVSTYYADSVKGRFTISRDNAKNTVYLQMNSLKPEDTAVYYCAAKRVRALYGGSEGGYWGQGTQVTVSS | low polyreactivity
4 | QVQLVESGGGLVQAGGSLRLSCAASGSTLDFYAMGWYRPAPGKERELVAAITWRGGSTYYADSVKGRFTISRDNAKNTVYLQMNCLKPEDTAVYYCAAKSYWLKSQYYSWGQGTQVTVSS | high polyreactivity
5 | QVQLVESGGGLVQAGGSLRLSCAASGSTLDRYVMGWYRQAPGKERELVAAISRNGGSTYYADSVKGRFTISRDNAKNTVYLQMNSLKPEDTAVYYCARYAGFPYTQGDYWGQGTQVTVSS | high polyreactivity
6 | QVQLVESGGGLVQAGGSLRLSCAASGSTLDTNAMGWYRQAPGKERELVAVIDSGGTTNYADSVKGRFTISRDNAKNTVYLQMNSLKPEDTAVYYCAADYAYFGYWFEGYDYWGQGTQVTVSS | low polyreactivity
7 | QVQLVESGGGLVQAGGSLRLSCAASGSTLERNAMGWYRQAPGKERELVAAITSSTGSTYYADSVKGRFTISRDNAKNTVYLQMNSLKPEDTAVYYFAKRVASVQSNRHDYWGQGTQVTVSS | high polyreactivity
8 | QVQLVESGGGLVQAGGSLRLSCAASGSTLFNYTMGWYRQAPGKESELVAAISSGGSTNYADSEKGRFTISRDNAKNTFYLQMNSLKPEDTAVYYCATDHDPWSWYRYDYWGQGTQVTVSS | low polyreactivity
9 | QVQLVESGGGLVQAGGSLRLSCAASGSTLFVNTKGWYRQAPGNERELVAAITSSGGSRYYADSVKGRFTISRDNAKNTVYLQMNSLKPQDTAVYYCAAKELGSPYDYWGQGTQVTVSS | high polyreactivity
10 | QVQLVESGGGLVQAGGSLRLSCAASGSTLFWNAMGWYRKAPGKERELVAVISFSGVSTYYADSVKGRFTISRDNAKNTVYLQLNSLKPEDTAVYYCAAGRCLYYYYGYVDKYGYWGQGTQVTVSS | low polyreactivity
11 | QVQLVESGGGLVQAGGSLRLSCAASGSTLGGNAMGWYRQAPGKERELVAAITSSAGSTYYADSVKGRFTISRDNAKNTVYLQMNSLKPEDTAVYYCATSRDYIGYDYWGQGTQVTVSS | low polyreactivity
12 | QVQLVESGGGLVQAGGSLRLSCAASGSTLGRNAMGWDRQAPGKERELVASITRSGGSTYYADSVKGRFTISRDNAKNTVYLQMNSLKPEDTAVYYCAAEVQGQVGEFDYWGQGTQVTVSS | low polyreactivity
13 | QVQLVESGGGLVQAGGSLRLSCAASGSTLGSNAMGWYRQAPGKERELVAAITWSGGTTYYADSVKGRFTISRDNAKNTVYLQMNSLKPEDTAVYYCATGQSVIYRYEYWGQGTQVSVSS | low polyreactivity
14 | QVQLVESGGGLVQAGGSLRLSCAASGSTLGSNAMGWYRQAPGKERELVAAITWSGGTTYYADSVKGRFTISRDNAKNTVYLQMNSMKPEDSAVYYCNAERGSGVWWKIWGSDPDDYWGQGTQVTVSS | low polyreactivity
15 | QVQLVESGGGLVQAGGSLRLSCAASGSTLGSNARGWYRQAPGKERALVAAITWSGGTTYYADSVKGRFTISRDNAKNPVYLQMNSLKPEDTAVYYCATGQSVIYRYDYWGQGTQVTVSS | low polyreactivity
16 | QVQLVESGGGLVQAGGSLRLSCAASGSTLGVYVMGWYRQAPGKERELVAAISRNGGSTYYADSVKGRFTISRDNAKITVYLQMNSLKPEDTAVYYCAARTVGRKAGFDYWGQGTQVTVSS | high polyreactivity

Row | Sequence | polyreactivity (PSR sort gate)
17 | QVQLVESGGGLVQAGGSLRLSCAASGSTLGYYVMGWYRQAPGKERELVAAITGGGSTDYADSVKGRFTISRDNAKNTVYLQMNSLKPEDTAVDYCAAERTRTGQLFCWGPIYEYWGQGTQVTVSS | low polyreactivity
18 | QVQLVESGGGLVQAGGSLRLSCAASGSTLHEYVMGWYRQAPGKGRELVAAISRRGDSTYYADSVKGRFTISRDNAKNTVYLQMNSLKPEDTAVYYCAARWYWYWSSWDYYSWGQGTQVTVSS | low polyreactivity
19 | QVQLVESGGGLVQAGGSLRLSCAASGSTLHVYVMGWYRQAPGKERELVAAISYSGGITYYADSVKGRFTISRDNAKNTVYLQMNSLKPEDTAVYYCAARIISYRVRGKSRHDYWGQGTQVTVSS | low polyreactivity
20 | QVQLVESGGGLVQAGGSLRLSCAASGSTLHYNAMGWYRQAPGKERELVARISWSGGSTYYADSVKGRFTISRDTAKNTVYLQMNSLKPEDTAVYYCAAPRYGHYTWLYDYWGQGTQVTVSS | low polyreactivity
21 | QVQLVESGGGLVQAGGSLRLSCAASGSTLNSYVMGWYRQAPGKERELVATIRSGSSTNYADSVKGRFTISLDNAKNTVYLQMNSLKPVDTAVYYCSRDDRLAGDYWGQGTQVTVSS | low polyreactivity
22 | QVQLVESGGGLVQAGGSLRLSCAASGSTLPGNVMGWYRQAPGKERELVAAISKRGASTYYADSVKGRFTISRDNAKYTVYLLMNSLKPEDTAVYYCATRTRGSVFRFDYWGQGTQVTVSS | high polyreactivity
23 | QVQLVESGGGLVQAGGSLRLSCAASGSTLPTNAMGWYRQAPGKEREFVAAISDNGGSTYYADSVKGRFTISRDNAKNTVYLQMNSLKPEDTAVYYCAADWDESYSYRRYGHYDYWGQGTQVTVSS | low polyreactivity
24 | QVQLVESGGGLVQAGGSLRLSCAASGSTLRDYVMGWYRQAPGKERELVAAITSRVDDTYYADSVKGRFTISRDNAKNTVYLQMNSLKPEDTAVYYCAKRYGRFYHYDYWGQGTQVTVSS | low polyreactivity
25 | QVQLVESGGGLVQAGGSLRLSCAASGSTLRGNARGCYRQAPGKEREFVAAISSSGGRTYYADSVKGRFTISRDNAKNTVYLQMTSLNPEDTAVYYCAAAGYQYYFSSVPRAYYYWGQGTLVTVSS | high polyreactivity
26 | QVQLVESGGGLVQAGGSLRLSCAASGSTLRTYAMGWYRQAPGKERELVAAISFSTTSTYYADSVKGRFTISRDNAKNTVYLQMNSLKPEDTAVYYCAAEYWYYWEYEYWGQGTQVTVSS | high polyreactivity
27 | QVQLVESGGGLVQAGGSLRLSCAASGSTLRWNTMGWYRQAPGKERQLVARISKSGGSTSYADSVKGRLTISRDNAKNTVYLQMNSLKPEDTAVYYCAKTPSQGYVFSYRWGDYWGQGTQVTVSS | high polyreactivity
28 | QVQLVESGGGLVQAGGSLRLSCAASGSTLSFNAMGWYRQAPGKERELVAGITYSGGSTYYADSVKGRFTISRDNAKNTVYLQMNSLKPEDTAVYYCNKSSGVYYGHLDYWGQGTQVTVSS | low polyreactivity
29 | QVQLVESGGGLVQAGGSLRLSCAASGSTLSGYVMGWYRQAPGKERELVAGISQSGASTYYADSVKGRFTISRDNAKNTVYLQMNSLKPEDTAVYYCAAVARYLLKYRRYGYWGQGTQVTVSS | high polyreactivity
30 | QVQLVESGGGLVQAGGSLRLSCAASGSTLSQYAMGWYRQAPGKERELVAAISGGGRTYYADSVKGRFTISRDNAKNTVYLQMNSLKPEDTAVYYCAKVRLKKGTRDSYDYWGQGTQVTVSS | high polyreactivity
31 | QVQLVESGGGLVQAGGSLRLSCAASGSTLSRYVMGWSRHAPGKERELVASISWSGTRTYYADSVKGRFTISRDNAKNTVYLQMNSLIPEDTAVYYCNAVSRGGRLYDYWGQGTQVTVSS | high polyreactivity
